Measurements: paper PMC3506534, “LL-37 Induces Polymerization and Bundling of Actin and Affects Actin Structure” (PLoS ONE, 2012)
Like-named read-outs stand apart in the source and are kept apart here. Values belong to the compound of their own block, whether it stands above or below them. No end group written: not given here.

Legend:
[1] = gelsolin; ref [6]; cited from earlier work
From the text: LL-37-induced actin polymerization and bundling was chosen as the subject of this study. LL-37 is a 37 amino acid polycationic peptide with 6 net positive charges and is the only known member in human of the cathelicidin family of host defense peptides. In addition to its antimicrobial activity, the host defense activities of LL-37 include chemoattraction, cytokine release, tissue regeneration, inhibition of immunostimulation and apoptosis,[26]. […] There, it increases the F-actin content in the cyt ...

[2] = gelsolin; ref [30]; cited from earlier work
From the text: (§1) Bundles of actin filaments are major contributors to the viscosity of sputum in the airways of cystic fibrosis patients. LL-37, which also has been found in the sputum, may contribute to actin bundle formation. […] Here, we studied the effect of cofilin [39] and DNase1 on the stability of LL-37-induced bundles.

[3] = system: LL-37-induced Mg-F-actin bundles; conditions: gelsolin; ref [38]; cited from earlier work
From the text: as §1

MgATP-G-actin [4] = molecular target: T1, MgATP-G-actin (Oryctolagus cuniculus, UniProt P68135); experiment: Polymerization of MgATP-G-actin at low ionic strength (pyrene fluorescence); assay type: biochemical, rabbit; conditions: 2 µM MgATP-G-actin, 10% pyrene labeled; low ionic strength MgATP-G-buffer pH 7.4; 22°C; representative of three independent experiments
T1 construct: CaATP-G-actin was prepared from acetone dried powder derived from the back and leg muscles of rabbit by the method of Spudich and Watt; from tissue; host or cells: rabbit back and leg skeletal muscle (acetone dried powder)
Procedure: (§2) CaATP-G-actin was prepared from acetone dried powder derived from the back and leg muscles of rabbit by the method of Spudich and Watt that even without gel filtration yields highly homogeneous actin in purity greater than 90%. CaATP-G-actin was stored in a buffer containing 5 mM TrisHCl, 0.2 mM CaCl2, 0.2 mM ATP, 0.5 mM β-mercaptoethanol, pH 8.0 (CaATP-G-buffer). MgATP-G-actin was obtained by incubating CaATP-G-actin with 0.2 mM EGTA and 0.1 mM MgCl2 at room temperature for 5 min. MgATP-G-actin was diluted for further treatments in MgATP-G-buffer containing 5 mM MOPS, 0.1 mM MgCl2, 0.2 mM EGTA, 0.2 mM ATP and 0.5 mM DTT, pH 7.4. […] The concentration of unlabeled rabbit skeletal muscle α-G-actin was determined spectrophotometrically using the extinction coefficients E^1% 290 = 11.5 cm^−1. (The optical density of actin was measured in the presence of 0.5 M NaOH, which shifts the maximum of absorbance from 280 nm to 290 nm). […]
(§3) Labeling of Mg-F-actin at Cys-374 with pyrene maleimide was carried out according to Kouyama and Mihashi with some modifications. […] The concentration of modified actin was determined by the procedure of Bradford using unmodified actin as a standard. The extent of labeling, which was measured by using pyrene extinction coefficient E344 nm = 22000 cm^−1M^−1, was ∼100%. […]

MgATP-G-actin [5] = molecular target: T1, MgATP-G-actin; experiment: Effect on MgCl2- or NaCl-induced polymerization of MgATP-G-actin (pyrene fluorescence); assay type: biochemical, rabbit; conditions: 4 µM LL-37 or lysozyme added simultaneously with salt; 2 µM MgATP-G-actin, 10% pyrene labeled; 22°C
Procedure: as §2, §3

Mg-F-actin [6] = molecular target: T2, Mg-F-actin (Oryctolagus cuniculus, UniProt P68135); experiment: Extent of Mg-F-actin bundling by low speed sedimentation; assay type: biochemical, rabbit; conditions: for EC50: read-out: concentration for half maximal bundling
T2 construct: CaATP-G-actin was prepared from acetone dried powder derived from the back and leg muscles of rabbit by the method of Spudich and Watt; from tissue; host or cells: rabbit back and leg skeletal muscle (acetone dried powder)
Procedure: CaATP-G-actin was prepared from acetone dried powder derived from the back and leg muscles of rabbit by the method of Spudich and Watt that even without gel filtration yields highly homogeneous actin in purity greater than 90%. CaATP-G-actin was stored in a buffer containing 5 mM TrisHCl, 0.2 mM CaCl2, 0.2 mM ATP, 0.5 mM β-mercaptoethanol, pH 8.0 (CaATP-G-buffer). MgATP-G-actin was obtained by incubating CaATP-G-actin with 0.2 mM EGTA and 0.1 mM MgCl2 at room temperature for 5 min. MgATP-G-actin was diluted for further treatments in MgATP-G-buffer containing 5 mM MOPS, 0.1 mM MgCl2, 0.2 mM EGTA, 0.2 mM ATP and 0.5 mM DTT, pH 7.4. MgF-actin was polymerized from MgATP-G-actin or CaATP-G-actin by 30 min incubation with 2 mM MgCl2 at room temperature. The concentration of unlabeled rabbit skeletal muscle α-G-actin was determined spectrophotometrically using the extinction coefficients E^1% 290 = 11.5 cm^−1. (The optical density of actin was measured in the presence of 0.5 M NaOH, which shifts the maximum of absorbance from 280 nm to 290 nm). Molecular masses of skeletal actin, yeast cofilin, hen-lysozyme and LL-37 were assumed to be 42 kDa, 15.9 kDa, 14.3 kDa and 4.5 kDa respectively.
After addition of polycations, actin samples were centrifuged at 20,800×g at 4°C for 8 min (in an Eppendorf centrifuge). The supernatants were run using SDS-PAGE and analyzed by densitometry using the TINA 2.07d software.
Figure 3 LL-37, scrambled LL-37 and lysozyme induced bundle formation of Mg-F-actin at low and physiological (100 mM NaCl) ionic strength. (A) Kinetics of LL-37-induced bundle formation: LL-37 (2–8 µM) was added to MgF-actin (2 µM) and bundle formation was followed as an increase in light scattering at 350 nm. Presented data are representative of three independent experiments. (B) Extent of LL-37 and lysozyme induced bundle formation: LL-37 or lysozyme (0.5–9 µM) were added to Mg-F-actin (4 µM). Samples were centrifuged at 20,800×g, for 8 min and the supernatants were analyzed by SDS-PAGE and densitometry. (C) Extent of LL-37 and scrambled LL-37 induced bundle formation: LL-37 or scrambled LL-37 (2–14 µM) were added to MgF-actin (4 µM) and bundle formation was measured as in (B). The presented data are mean and standard deviation of three independent experiments in (B) and (C).

Mg-F-actin [7] = molecular target: T2, Mg-F-actin; experiment: NaCl concentration dependent stability of Mg-F-actin bundles (low speed sedimentation); assay type: biochemical, rabbit; conditions: 4 µM MgF-actin bundled by 6 µM lysozyme or 10 µM sLL-37; 10 min room temperature
Procedure: as §2
After addition of polycations, actin samples were centrifuged at 20,800×g at 4°C for 8 min (in an Eppendorf centrifuge). The supernatants were run using SDS-PAGE and analyzed by densitometry using the TINA 2.07d software. […]
Figure 4 NaCl concentration dependent bundling of MgF-actin by LL-37, lysozyme and sLL-37. […] The supernatants were analyzed by SDS-PAGE and densitometry. […]

Mg-F-actin [8] = molecular target: T2, Mg-F-actin; conditions: lysozyme; ref [20]; cited from earlier work
Procedure: Bundling kinetics of MgF-actin by LL-37, lysozyme and scrambled LL-37 were studied by increase in light scattering and the extent of bundling was determined using low speed centrifugation. The bundling of MgF-actin by LL-37 is also shown by electron microscopy (Figure S1). Mg-F-actin bundle formation was very fast both with LL-37 (Figure 3A) and lysozyme. The extent of bundling was dependent on the concentration and the nature of the polycation used (Figure 3B). At low ionic strength more than 50% of Mg-F-actin was bundled upon addition of lysozyme (1 µM) to Mg-F-actin (4 µM). A similar ...

[9] = system: LL-37-induced Mg-F-actin bundles; experiment: Kinetics of dissociation of LL-37-induced Mg-F-actin bundles (light scattering); assay type: biochemical, rabbit; conditions: 200 mM NaCl; 4 µM MgF-actin bundled by 9 µM LL-37; 450 nm
Procedure: Bundling of MgF-actin was followed by increase in light scattering [20]. The time course of light scattering changes was also measured in a PTI spectrofluorometer, with both excitation and emission wavelengths adjusted to 450 nm. All fluorescence and light scattering measurements were carried out at 22°C.
This was followed by the addition of 6 µM DNase1, cofilin, or 200 mM NaCl. Bundling and dissociation was monitored as a change in light scattering.
This was followed by the addition of 6 µM DNase1, 6 µM cofilin, or 200 mM NaCl (thick arrow). Bundling and dissociation were followed as an increase and decrease in light scattering, respectively, measured at 450 nm. Presented data are representative of three independent experiments.

Compound: Gelsolin
effect on LL-37 antibacterial activity [1]: restore | effect on sputum viscosity [2]: significantly reduce the viscosity of sputum | dissociation of LL-37-induced actin filament bundles [3]: dissociate LL-37-induced actin filament bundles

concentration giving polymerization of MgATP-G-actin (MgATP-G-actin [4]): 1 µM | effect on polymerization induced by 2 mM MgCl2 or 100 mM NaCl (MgATP-G-actin [5]): no inhibitory effect | EC50 (Mg-F-actin [6]; 4 µM Mg-F-actin, low ionic strength): 1 µM | EC50 (Mg-F-actin [6]; 4 µM Mg-F-actin, physiological ionic strength (100 mM NaCl)): 6 µM | Mg-F-actin bundled (Mg-F-actin [6]; lysozyme 1 µM, 4 µM Mg-F-actin, low ionic strength, 20,800×g 8 min, SDS-PAGE densitometry, three independent experiments): more than 50% | NaCl concentration at which bundle stability was decreased (Mg-F-actin [7]): 50 mM | NaCl concentration in which bundles completely dissociated (Mg-F-actin [7]): 150 mM
Compound: lysozyme: Hen lysozyme, antibacterial polycationic protein, 14.3 kDa, from Sigma
rate of Mg-F-actin bundle formation (Mg-F-actin [8]): very fast

Compound: [Cl-].[Na+] [NaCl]
rate and completeness of dissociation [9]: complete and very fast

MgF-actin bundled (Mg-F-actin [6]; sLL-37 10 µM, 4 µM MgF-actin, low ionic strength): more than 60%
Compound: GLKLRFEFSKIKGEFLKTPEVRFRDIKLKDNRISVQR [Scrambled LL-37]
